From US8209131B2, “Therapeutic heparins and their binding to interleukins 4 and 5 and PECAM-1” (Curtin University of Technology, priority 2004, dated 2012) come the findings set out here.

Sequences and labels used below:
B1: R75A: IL-4 mutant, baculovirus expressed (protein)
chain: HKCDITLQEIIKTLNSLTEQKTLCTELTVTDIFAASKNTTEKETFCRAATVLRQFYSHHEKDTRCLGATAQQFHAHKQLIRFLKRLDRNLWGLAGLNSCPVKEANQSTLENFLERLKTIMREKYSKCSS
B2: K77A: IL-4 mutant, baculovirus expressed (protein)
chain: B1 chain with A75R, K77A
B3: K12A: IL-4 mutant, baculovirus expressed (protein)
chain: B1 chain with K12A, A75R
B4: R121A: IL-4 mutant, baculovirus expressed (protein)
chain: B1 chain with A75R, R121A
B5: K21A: IL-4 mutant, baculovirus expressed (protein)
chain: B1 chain with K21A, A75R
B6: K77A/R81A: IL-4 double mutant (protein)
chain: B1 chain with A75R, K77A, R81A
B7: K77A/R53A: IL-4 double mutant (protein)
chain: B1 chain with R53A, A75R, K77A
B8: K77A/K84A: IL-4 double mutant (protein)
chain: B1 chain with A75R, K77A, K84A

Substitutions are numbered along the chain they refer to. Names and notes keep the numbering of the source.

System in the first assay: not listed separately
Description: BIAcore binding of proteins to heparin immobilised on a biosensor chip. The following applies: IL-4 WT and mutants binding to heparin; in M-1s-1 (unit assumed). The source says: This technology uses the optical phenomenon of surface plasmon resonance to monitor physical interactions between molecules. Passing the protein solution over a sensor surface to which the ligand is coupled monitors the real-time binding of proteins to an immobilized ligand. Detection is achieved by measuring refractive index changes very close to the sensor surface. When the refractive index is altered, the angle at which plasmon resonance occurs changes and this change directly correlates with the amount of protein interacting with the surface. A BIAcore 2000 is conveniently used. It is very sensitive and its microfluidics ensures that only small amounts of material are required.
The HLGAGs are immobilized on the biosensor chip. Intact HLGAGs are biotinylated via amino groups, or reducing termini modified with ammonia by reductive amination, using sulfo-NHS-biotin. Biotinylated HLGAGs are immobilized on streptavidin-coupled sensor chips. Solutions containing proteins of interest are injected over the sensor chip surface, and the binding is measured in real time (Fernig, In: Proteoglycan protocols, Ed. R.V. Iozzo, Humana Press, Totowa, N.J., USA, 2001). […] In all cases binding is specific, as there is little or no interaction with sensor chips lacking heparin with any of the targeted proteins, and binding is inhibited by exogenous heparin. Initial analyzes indicate that the binding of rhIL-5 to heparin has affinity constants of the order from 50-5×10^−9. Because unsubstituted amines are variably present in heparan sulfates from different tissues, an alternative method of biotin labeling is recommended for the heparan sulfate chip. In this case, heparan sulfate is labeled via oxidized cis-diol residues using biotinyl-LC-hydrazine. […]
Binding experiments with these proteins has indicated to which PECAM-1 domains heparin binds. Two binding assays were used: the assay where PECAM-1 is reacted with a BIAcore biosensor chip to which heparin has been immobilised and the second assay is the binding of PECAM-1 to heparan sulfate on the cell surface.
Site directed mutagenesis was performed on IL-4. Basic residues within the proposed heparin binding site were changed to alanine and the proteins expressed using the baculovirus expression system. The one exception was R88 which was changed to valine. Insect cell expressed proteins were purified on an anti-IL-4 affinity column and checked for purity by SDS-PAGE and silver staining. Mutant IL-4 proteins were examined for their ability to bind heparin immobilised on a biosensor chip and binding assessed using a BIAcore 2000.
A general note: In SPR one partner is held on a chip, and binding of the other changes the refractive index at the surface.
For the molecule B1, the ka turned out to be 3.32E+04.
B2 displayed a ka of 6.42E+03.
Same read-out and setting: then B3, with 5.03E+04; and B4, with 5.13E+04.
The same measure, in the same setting: the value for B5 was 4.86E+04.
On to B6, for which the ka is listed as 9.82E+03.
Still for that read-out and setting: the value for B7 was 1.79E+04.
B8 gave a ka of 1.26E+04.

Staying with this assay, now noted: IL-4 WT and mutants binding to heparin; in s-1 (unit assumed).
The molecule B1 had a kd of 3.63E−03.
On the same count and under the same terms, then B2, with 2.24E−03; and B3, with 3.95E−03; and B4, with 2.13E−03.
On the same count and under the same terms, the value for B5 was 2.53E−03; that for B6 was 1.55E−03; that for B7 was 3.08E−03.
For the molecule B8, the kd is recorded as 2.23E−03.

Still in this assay, the particulars now being: IL-4 WT and mutants binding to heparin; read-out: KD.
On to B1, for which the dissociation constant (Kd) (as a rule, the equilibrium constant for the complex coming apart) came to 109 nM.
On to B2, for which the dissociation constant (Kd) stood at 349 nM.
On the same count and under the same terms, then B3, with 78.5 nM.
Same read-out and setting: the value for B4 was 41.5 nM.
The same measure, in the same setting: the value for B5 was 52.1 nM; that for B6 was 158 nM; that for B7 was 172 nM.
On to B8, for which the Kd was found to be 176 nM.

The next assay relates to TF1.8 cells. As to the kind of experiment: TF1.8 bioassay of IL-4 mutants (support of proliferation). It is filed as cell-based, human. The following applies: IL-4 wt and mutants, TF1.8 cells. As for the experimental part:
TF-1.8 cells have been transfected with the firefly luciferase gene contained in the expression vector, pPGK-puromycin-luciferase (Coombe et al., 1998, Supra). The positive transfectants are cloned to produce a line with good luciferase expression. The proliferation assays are carried out in 96-well microplates suitable for such assays Falcon). The wells are flat bottomed, with white sides and a clear bottom. Cells are washed to remove any cytokine in the growth medium and then resuspended in RPMI/5% w/v FCS. The cells are counted with a Coulter Multisizer (Coulter Electronics, England) and routinely 2.5×10^4 cells are added to microplate wells that contain either no IL-4 (negative control) or various dilutions of IL-4. When the effect of HLGAGs, chondroitin sulfate C, or the heparin fractions of a particular length, or heparin fragments of a particular length and structure is to be measured, the wells also contain various concentrations of these molecules.
The cells proliferate for 48 hours at 37° C. in a humidified atmosphere, after which the luciferase activity is measured by the addition of 50 μl of luciferase substrate buffer (50 mm Tris-HCl, pH 7.8, 15 mM MgSO4, 33.3 mM DTT, 0.1 mM EDTA, 0.5 mM Na-luciferin, 0.5 mM ATP, 0.25 mM lithium Co A and 0.5% v/v Triton X-100). Immediately after the addition of the luciferase buffer the plate is assayed for luciferase activity. Light emissions are detected on a Victor 1420 Multilabel counter (Wallac, Turku, Finland).
IL-4 mutants were compared with WT for their ability to support the proliferation of TF1.8 cells. Titration curves were performed for each of the mutants and the concentration needed to support 50% of cell growth was determined.
Consider B1, for which the “Conc needed for 50% growth, average” value was found to be 0.63 ng/mL.
Same read-out and setting: the value for B2 was 1.55 ng/mL; that for B3 was 0.6 ng/mL; that for B4 was 1.01 ng/mL.
In the case of B5, the “Conc needed for 50% growth, average” value was determined as 1.36 ng/mL.
The same measure, in the same setting: the value for B6 was 1.65 ng/mL; that for B7 was 11.3 ng/mL.
Still for that read-out and setting: the value for B8 was 1.69 ng/mL.
